According to publication PMC5459593 (2017):

Legend:
[1] = target: T1, Notch1(8-12) EGF8-12 (Rattus norvegicus, UniProt Q07008); assay: SPR
T1 chain: LLCLT

[2] = target: T2, Notch1(11-12) EGF11-12 (Rattus norvegicus, UniProt Q07008); assay: SPR
T2 chain: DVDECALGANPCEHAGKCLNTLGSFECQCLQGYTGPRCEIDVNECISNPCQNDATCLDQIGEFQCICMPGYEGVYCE

B1: DLL4(N-3) N-EGF3 (protein)
chain: SGIFQLRLQEFANERGMLANGRPCEPGCRTFFRICLKHYQATFSEGPCTFGNVSTPVLGTNSFVIRDKNSGSGRNPLQLPFNFTWPGTFSLNIQAWHTPGDDLRPETSPGNSLISQIIIQGSLAVGKNWKSDEQNNTLTRLRYSYRVVCSDNYYGDSCSRLCKKRDDHFGHYECQPDGSLSCLPGWTGKYCDQPICLSGCHEQNGYCSKPDECNCRPGWQGPLCNECIPHNGCRHGTCTIPWQCACDEGWGGLFCDQDLNYCTHHSPCKNGSTCSNSGPRGYTCTCLPGYTGEHCE
Kd [1]: 9.7 µM | Kd [2]: 12.8 µM
